This note sets out measurements from patent publication US20250314655A1 (AUTOLUS, published 2025).

No end group written: not given here.

First the molecules themselves.
T1: TRBC1 peptide (biotinylated) (human, also: biotinylated (site not given here))
T1 construct: In the monoclonal screen: biotinylated, 0.5 ug/ml on neutravidin-coated plates; In the polyclonal phage ELISA also presented as BSA or OA conjugate of the C-terminal-cysteine form; also called Bio-TRBC1; biotinylated TRBC1
T1 peptide: VLEDLNKVFPPEVAV

T2: TRBC2 peptide (biotinylated) (human, also: biotinylated (site not given here))
T2 construct: In the monoclonal screen: biotinylated, 0.5 ug/ml on neutravidin-coated plates; In the polyclonal phage ELISA also presented as BSA or OA conjugate of the C-terminal-cysteine form; also called Bio-TRBC2; biotinylated TRBC2
T2 peptide: VLEDLKNVFPPEVAV

B1: CP_01_C11 (scFv, not shown: small tags and cut ends)
scFv: QVQLVESGAEVKKPGASVKVSCKASGYTFTGYYMHWVRQAPGQGLEWMGRINPNSGGTNYAQKFQGRVTMTRDTSISTAYMELSRLRSDDTAVYYCASGGAGWNWGQGTMVTVSSGGGGSGGGGSGGGASNFMLTQPHSVSESPGKTATISCTRSSGSIASNYVQWYQQRPGSAPTTVIYEDNQRPFGVPDRFSGSIDSSSNSASLTISGLKTEDEADYYCQSHDSSNVVFGGGTQLTVLGQPAA
notes: scFv from pSANG10-3F (His6, tri-FLAG), culture supernatant
B2: CP_01_F06 (scFv, not shown: small tags and cut ends)
scFv: EVQLLESGGGVVQPGRSLRLSCAASGFTFSSYGMHWVRQAPGKGLEWVAVISYDGSNKYYADSVKGRFTISRDNSKNTLYLQMNSLRAEDTAVYYCAKDDGAMRYWGQGTMVTVSSGGGGSGGGGSGGGASDIQMTQSPDSLAVSLGERATINCKSSQSVLYSSNNKNYLAWYQQKPGQPPKLLIYWASTRESGVPDRFSGSGSGTDFTLTISSLQAEDVAVYYCQQYYDSPYTFGQGTKVDIKRTAAA
notes: as for B1
B3: CP_01_E07 (scFv, not shown: small tags and cut ends)
scFv: QVQLVESGGGVVQPGRSLRLSCAASGFTFSSYGMHWVRQAPGKGLEWVAVISYDGSNKYYADSVKGRFTISRDNSKNTLYLQMNSLRAEDTAVYYCAKDLGGSGGAFDIWGQGTLVTVSSGGGGSGGGGSGGGASDIVMTQTPHSLSVTPGQPASISCKSSQSLLYSDGKTYLYWYLQKPGQPPQLLIYEVSNRFSGVPDRFSGSGSGTDFTLKISRVEAEDVGVYYCMQSIQLYTFGQGTKVDIKRTAAA
notes: as for B1
B4: CP_01_C08 (scFv, not shown: small tags and cut ends)
scFv: EVQLLESGGGAVQPGRSLRLSCAASGFTFSSYAMHWVRQAPGKGLEWVAVISYDGSNKYYADSVKGRFTISRDNSKNTLYLQMNSLRAEDTAVYYCASGYSSSWYLDYWGQGTLVTVSSGGGGSGGGGSGGGASDIQMTQSPSSVSASVGDRVTITCQASQDISNYLNWYQQKPGKAPKLLIYDASNLETGVPSRFSGSGSGTDFTFTISSLQPEDIATYYCQQYDNLPLTFGGGTKVEIKRTAAA
notes: as for B1
B5: CP_01_D03 (scFv, not shown: small tags and cut ends)
scFv: QVQLVESGGGVVQPGRSLRLSCAAPGFTFSSYGMHWVRQAPGKGLEWVAVISYDGSNKYYADSVKGRFTISRDNSKNTLYLQMNSLRAEDTAVYYCARNKQYGMDVWGQGTLVTVSSGGGGSGGGGSGGGASDIVMTQSPATLSLAPGERATLSCRASQSVGSNLAWYQQKPGQAPSLLIYDASTRATGIPARFSGSGSGTDFTLTISSLQSEDIAVYYCQQYHRWPLTFGGGTKVEIKRTAAA
notes: as for B1
B6: CP_01_D12 (scFv, not shown: small tags and cut ends)
scFv: EVQLLESGGGVVQPGRSLRLSCAASGFTFSSYAMHWVRQAPGKGLEWVAVISYDGSNKYYADSVKGRFTISRDNSKNTLYLQMNSLRAEDTAVYYCAKGGDTYGFLDNWGQGTMVTVSSGGGGSGGGGSGGGASDIQMTQSPSTLSASVGDRVTITCRASQSISSWLAWYQQKPGKAPKLLIYKASSLESGVPSRFSGSGSGTDFTLTISSLQPEDFATYYCQQFNAYPLTFGGGTKVEIKRTAAA
notes: as for B1
B7: CP_01_E09 (scFv, not shown: small tags and cut ends)
scFv: QVQLVESGGGVVQPGRSLRLSCAASGFTFSSYAMHWVRQAPGKGLEWVAVISYDGSNKYYADSVKGRFTISRDNSKNTLYLQMNSLRAEDTAVYYCARAHNSSSWSFDYWGQGTLVTVSSGGGGSGGGGSGGGASDIQMTQSPSSLSASVGDRVTITCRASQSISSYLNWYQQKPGKAPKLLIYDASNLETGVPSRFSGSGSGTDFTFTISSLQPEDIATYYCQQYDNLPLTFGGGTKVDIKRTAAA
notes: as for B1
B8: CP_01_D10 (scFv, not shown: small tags and cut ends)
scFv: QVQLVESGGGLVQPGRSLRLSCAASGFTFSSYAMHWVRQAPGKGLEWVAVISYDGSSKYYADSVKGRFTISRDNSKNTLYLQMNSLRAEDTAVYYCAKGGGSFGAFDIWGQGTLVTVSSGGGGSGGGGSGGGASDIQMTQSPSSLSASVGDRVTITCRASQSISRYLNWYQQKPGKAPNLLIYAASSLQSGVPSRFSGSGSGTDFTLTISSLQPEDFATYYCQQYNSYPLTFGGGTKLEIKRTAAA
notes: as for B1
B9: CP_03_C12 (scFv, not shown: small tags and cut ends)
scFv: EVQLVQSGAEVKKPGASVKVSCKASGYTFTGYYMHWVRQAPGQGLEWMGWINPNSGGTNYAQKFQGRVTMTRDTSISTAYMELSSLRSEDTAVYYCARDTGPIDYWGQGTMVTVSSGGGGSGGGGSGGGASDIVMTQTPLSLSVTPGQPASISCKSSQSLLHSDGKTYLYWYLQKPGQPPQLLVYEVSNRFSGVPDKFSGSGSGTDFTLKISRVEAEDVGVYYCMQGIQLPPTFGGGTKVDIKRTAAA
notes: as for B1
B10: CP_03_F10 (scFv, not shown: small tags and cut ends)
scFv: EVQLVESGAEVKKPGASVKVSCKASGYTFTGYYMHWVRQAPGQGLEWMGRINPNSGGTNYAQKFQGRVTMTRDTSISTAYMELSSLRSEDTAVYYCARFGERYAFDIWGQGTLVTVSSGGGGSGGGGSGGGASQSELTQPPSASGSPGQSVTISCTGTSTDVGAFHFVSWYQHTPGKAPKLLISEVRKRASGVPDRFSGSRSGNTASLTVSGLQSEDEADYFCSAYTGSNYVFGSGTKLTVLGQPAA
notes: as for B1
B11: CP_03_D09 (scFv, not shown: small tags and cut ends)
scFv: EVQLVQSGAEVKKPGSSVKVSCEASGYTFTSYAISWVRQAPGQGLEWMGWMNPNSGNTGYAQKFQGRVTMTRNTSISTAYMELSSLRSEDTAVYYCARVSSYYGMDVWGQGTLVTVSSGGGGSGGGGSGGGASNFMLTQPLSVSESPGKTVTISCTRSSGSIASNYVQWYQQRPGSAPTTVIYEDNQRPSGVPDRFSGSIDSSSNSASLTISGLKTEDEADYYCQSYNSSNHWVFGGGTKVTVLGQPAA
notes: as for B1
B12: CP_03_G09 (scFv, not shown: small tags and cut ends)
scFv: QVQLQQSGPGLVKPSQTLSLTCAISGDSVSSNSAAWNWIRQSPSRGLEWLGRTYYRSKWYNDYAVSVKSRITINPDTSKNQFSLQLNSVTPEDTAVYYCARDQWLANYYYYGMDVWGQGTLVTVSSGGGGSGGGGSGGGASSYELTQPLSVSVALGQTARITCGGNNIGSKNVHWYQQKPGQAPVLVIYRDNNRPSGIPERFSGSNSGNTATLTISKAQAGDEADYYCQVWDSNSWVFGGGTKLTVLGQPAA
notes: as for B1
B13: CP_03_G02 (scFv, not shown: small tags and cut ends)
scFv: EVQLVQSGAEVKKPGSSVKVSCKASGGTFSSYAISWVRQAPGQGLEWMGIINPSGGSTSYAQKFQGRVTMTRDTSTSIVYMELSSLRSEDTAVYYCARGVWNSGSYLGFDYWGQGTLVTVSSGGGGSGGGGSGGGASDIQMTQSPSSLSASVGDRVTITCQASQDISNYLNWYQQKPGKAPKLLIYAASSLQSGVPSRFSGSGSGTDFTLTISSLQPEDFATYYCQQSYSTPLTFGGGTKLEIKRTAAA
notes: as for B1
B14: CP_03_F09 (scFv, not shown: small tags and cut ends)
scFv: QMQLVQSGAEVKKPGASVKVSCKASGYTFASYYMHWVRQAPGQGLEWMGIINPSGGSTSYAQKFQGRVTMTRDTSTSTVYMELSRLRSDDTAVYYCASNRGGSYKSVGMDVWGQGTTVTVSSGGGGSGGGGSGGGASNFMLTQPQSVSESPGKTVTISCTRSSGNFASKYVQWYQQRPGSSPTTVIYENYQRPSGVPDRFSGSIDSSSNSATLTISGLKTEDEADYYCQSYDEVSVVFGGGTQLTVLGQPAA
notes: as for B1
B15: CP_03_H06 (scFv, not shown: small tags and cut ends)
scFv: QVQLVESGGGLVKPGGSLRLSCAASGFTFSDYYMSWIRQAPGKGLEWVSYISSSGSTIYYADSVEGRFTISRDNAKNSLYLQMNSLRTEDTAVYYCARARVGGMDVWGQGTMVTVSSGGGGSGGGGSGGGASNFMLTQPHSVSESPGKTVTISCTRSSGSIASNYVQWYQQRPGSSPTTVIYEDNQRPSGVPDRFSGSIDSSSNSASLTISGLKTEDEADYYCQSFDADNLHVVFGGGTKLTVLGQPAA
notes: as for B1
B16: CP_03_D04 (scFv, not shown: small tags and cut ends)
scFv: EVQLVESGGGVVQPGRSLRLSCAASGFTFSSYAMHWVRQAPGKGLEWVAVISYDGSNKYYADSVKGRFTISRDNSKNTLYLQMNSLRAEDTAVYYCARGGFTVPGGAFDIWGQGTLVTVSSGGGGSGGGGSGGGASNFMLTQPHSVSDSPGKTVTISCTRSSGRIGSNFVQWYQQRPGSSPTTVIYEDDQRPSGVPARFSGSIDSSSNSASLTISGLTTADEAGYYCQSYDASNVIFGGGTKLTVLGQPAA
notes: as for B1
B17: CP_03_D05 (scFv, not shown: small tags and cut ends)
scFv: QVQLVESGAEVKKPGASVKVSCKASGYTFTGYYMHWVRQAPGQGLEWMGRINPNSGGTNYAQKFQGRVTMTRDTSISTAYMELSRLRSDDTAVYYCASPRGRGSAFDIWGQGTLVTVSSGGGGSGGGGSGGGASSYELTQPPSVSVSPGQTATISCSGDQLGGKYGHWYQKKPGQSPVLVLYQDRKRPAGIPERFSGSSSGNTITLTISGTQAVDEADYYCQAWDTNLGGVFGGGTKVTVLGQPAA
notes: as for B1
B18: CP_03_E05 (scFv, not shown: small tags and cut ends)
scFv: EVQLVESGGGVVQPGGSLRLSCAASGFTFSSYAMSWVRQAPGKGLEWVSAISGSGGSTYYADSVKGRFSISRDNSKNTLYLQMNSLRAEDTAVYYCARTRSSGAFDIWGQGTLVTVSSGGGGSGGGGSGGGASNFMLTQPHSVSESPGKTVTISCTRSSGSIASKYVQWYQQRPGSSPTTVIYEDNQRPSGVPDRFSGSIDTSSNSASLTISGLRTEDEADYYCHSYDSNNHSVFGGGTKVTVLGQPAA
notes: as for B1

The first assay deals with T1, TRBC1 peptide (biotinylated). Kind of assay: TRF assay, scFv on biotin-peptide/neutravidin plate. On the procedure:
(§1) The scFv populations from round-2 and round-3 selection outputs were sub-cloned into the pSANG10-3F expression vector and transformed into E. coli BL21 (DE3) cells. 1128 individual transformants (564 clones/TRBC peptide) were picked into 12×96 well culture plates (94 clones/plate) and antibody expression was induced using autoinduction media. Recombinant monoclonal antibodies secreted into culture supernatant after overnight induction were tested for binding to biotinylated TRBC1 and TRBC2 immobilised on neutravidin coated Nunc Maxisorp™ 96 well plates.
Consider B1, for which the TRBC1 binding was determined as 349000 TRF units.
In turn, B2 displayed a TRBC1 binding of 325000 TRF units.
Still for that read-out and setting: in the case of B3 it was 332000 TRF units; in that of B4, 353000 TRF units; in that of B5, 328000 TRF units.
The same measure, in the same setting: for B6 the value was 393000 TRF units.
On the same count and under the same terms, in the case of B7 it was 403000 TRF units; in that of B8, 371000 TRF units.

The next assay concerns the target T2, TRBC2 peptide (biotinylated). The description is as above. How it is done: as §1
B9: the TRBC2 binding stood at 167000 TRF units.
Same read-out and setting: in the case of B10 it was 140000 TRF units; in that of B11, 129000 TRF units.
On the same count and under the same terms, for B12 the value was 139000 TRF units.
Same read-out and setting: in the case of B13 it was 152000 TRF units; in that of B14, 132000 TRF units.
In turn, B15 gave a TRBC2 binding of 168000 TRF units.
The molecule B16 displayed a TRBC2 binding of 143000 TRF units.
Same read-out and setting: in the case of B17 it was 213000 TRF units.
Same read-out and setting: in the case of B18 it was 217000 TRF units.
